For this experiment, the target named is HSP70 (antigen; source and nucleotide state not stated) (Homo sapiens (Human)) (UniProt P0DMV8). In words: biosensor, anti-human Fc capture, antigen 100 nM.
HSP70 (antigen; source and nucleotide state not stated) (Homo sapiens (Human)), sequence (P0DMV8 whole entry): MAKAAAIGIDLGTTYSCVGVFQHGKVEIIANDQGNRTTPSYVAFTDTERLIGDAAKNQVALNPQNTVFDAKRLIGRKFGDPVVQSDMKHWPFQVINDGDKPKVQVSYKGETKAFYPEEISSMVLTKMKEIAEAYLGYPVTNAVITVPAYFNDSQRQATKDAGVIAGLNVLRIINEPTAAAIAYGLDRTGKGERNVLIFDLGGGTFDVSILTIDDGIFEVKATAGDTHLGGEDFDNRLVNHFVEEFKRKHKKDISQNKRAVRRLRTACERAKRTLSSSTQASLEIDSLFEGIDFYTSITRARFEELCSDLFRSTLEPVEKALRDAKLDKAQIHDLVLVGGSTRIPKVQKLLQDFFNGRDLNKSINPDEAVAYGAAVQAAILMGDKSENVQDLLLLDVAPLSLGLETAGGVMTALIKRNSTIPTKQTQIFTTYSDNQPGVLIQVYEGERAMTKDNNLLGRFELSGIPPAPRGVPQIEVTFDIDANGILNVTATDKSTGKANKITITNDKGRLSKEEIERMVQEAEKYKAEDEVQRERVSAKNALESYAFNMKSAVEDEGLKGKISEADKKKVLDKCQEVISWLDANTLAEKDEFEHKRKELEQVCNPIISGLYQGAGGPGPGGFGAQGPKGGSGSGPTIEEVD

B1: h77A-1.52 (antibody, V domains shown)
VH: QIQLVQSGVEVKKPGASVKVSCKASGYIFTNYGMNWVRQAPGQGLEWMGWINTYTGEPRYADDFKGRFTFTTDTSTSTAYMELRSLRSDDTAVYFCARYDHRMDYWGQGTLVTVSS
VL: EIVLTQSPDSLAVSLGERATINCKSSQSLLNSGTRKNYLAWYQQKAGQSPKLLIYWTSTRESGVPDRFSGSGSGTDFTLTIDSLQAEDVAVYYCKQSYTLYTFGGGTKVEIK
In the case of B1, the % Diss is -115% and the X = 1495 is 0.0133 nM.

B2: h77A-1.54 (antibody, V domains shown)
VH: QIQLVQSGAEVKKPGASVKVSCKASGYTFTKYGMNWVRQAPGQGLEWMGWINTYTGEPKYGDDFKGRFTFTTDTSTSTAYMELRSLRSDDTAVYFCARYDHRMDYWGQGTLVTVSS
VL: EIVLTQSPDSLAVSLGERATINCKSSQSLLNSGTRKNYLAWYQQKAGQSPKLLIYWTSTRESGVPDRFSGSGSGTDFTLTIDSLQAEDVAVYYCKQSYTLYTFGGGTKVEIK
Take B2: the % Diss is -41.2% and the X = 610 amounted to 0.0068 nM.

B3: h77A-1.80 (antibody, V domains shown)
VH: QIQLVQSGAEVKKPGASVKVSCKASGYTFTNYGMNWVRQAPGQGLEWMGWINTYTGEPKYADDFKGRFTFTTDTSTSTAYMELRSLRSDDTAVYFCARYDHVMDYWGQGTLVTVSS
VL: EIVLTQSPDSLAVSLGERATINCKSSQSLLNSGTRKNYLSWYQQKPGQSPKLIIYWTSTRESGVPDRFSGSGSGTDFTLTIDSLQAEDVAVYYCKQSYTLYTFGGGTKVEIK
On to B3, for which the % Diss is -8.84% and the X = 610 came out at 0.0181 nM.

B4: h77A-1.79 (antibody, V domains shown)
VH: QIQLVQSGAEVKKPGASVKVSCKASGYTFTKYGMNWVRQAPGQGLEWMGWINTYTGEPRYADDFKGRFTFTTDTSTSTAYMELRSLRSDDTAVYFCARYDHRMDYWGQGTLVTVSS
VL: EIVLTQSPDSLAVSLGERATINCKSSQSLLNSGTRKNYLAWYQQKPGQSPKLLIYWTSTRESGVPDRFSGSGSGTDFTLTIDSLQAEDVAVYYCKQSYNLYTFGGGTKVEIK
Turning to B4, the % Diss was -37.4% and the X = 610 worked out at 0.0131 nM.

These data come from patent publication US20230128075A1.
